Assay results as given in patent publication US20180222987A1.
Substitutions are numbered along the chain they refer to.

B1: 12D2-E5 Fab (Fab, V domains shown)
VH: EVKLVESGGGLVQPGRSLRLSCAASGFNFYAYWMGWVRQAPGKGLEWIGEIKKDGTTINYTPSLKDRFTISRDNAQNTLYLQMTKLGSEDTALYYCAREERDGYFDYWGQGVMVTVSS
VL: QFVLTQPNSVSTNLGSTVKLSCKRSTGNIGSNYVNWYQQHEGRSPTTMIYRDDKRPDGVPDRFSGSIDRSSNSALLTINNVQTEDEADYFCQSYSSGIVFGGGTKLTVL
B2: CODV-Fab BFX-3E3-D3 × CD3 (bispecific antibody, part only; not given: CD3 arm, linkers, constant domains, V domains shown, part only)
VH: QVQLQESGPGLVQPSQTLSLTCTVSGFSLTTYDVHWVRQPPGKGLEWMGRIQNGGITDYNSALKSRLIISRDTSKSQVFLKMNSVQTEDTAMYFCAKTGSYFYAFDHWGQGTLVTVSS
VL: QFVLTQPNSVSTNLGSTVKLSCKRNTGNIGSNYVNWYQQHEGRSPTTMIYRDDKRPDGVPDRFSGSIDRSSNSALLTINNVQTEDEADYFCQSYSSGINIIFGGGTKLTVL
B3: CODV-Fab 7G3 × OKT3 (bispecific antibody, part only; not given: OKT3 variable domains, full chains, V domains shown, part only)
VH: EVQLQQSGPELVKPGASVKMSCKASGYTFTDYYMKWVKQSHGKSLEWIGDIIPSNGATFYNQKFKGKATLTVDRSSSTAYMHLNSLTSEDSAVYYCTRSHLLRASWFAYWGQGTLVTVSA
VL: DFVMTQSPSSLTVTAGEKVTMSCKSSQSLLNSGNQKNYLTWYLQKPGQPPKLLIYWASTRESGVPDRFTGSGSGTDFTLTISSVQAEDLAVYYCQNDYSYPYTFGGGTKLEIK
B4: 1E6 Fab (Fab, V domains shown)
VH: EVQLVETGGSLVQPGKSLKLTCATSGFTFSYAWMHWVRQSPDKQLQWVAQIKAKSNNYATYYAESVEGRFTISRDDSKSSVYLQMNSLKEEDTAIYYCRGVYYGLLGLDAWGQGTSVTVSS
VL: DVVMTQTPVSLSVRLGGQVSISCRSSQSLVHNNGNTYLSWFLQKPGQSPQLLIYKVSNRFSGISDRFSGSASGTDFTLKISRVEPDDLGVYYCGQGTHYPFTFGSGTKLEIK
B5: 5B1-G2 Fab (Fab, V domains shown)
VH: EVQVVETGGSLVQPGKSLKLTCATSGFSFSNAWMHWVRQSPEKQLEWVAQIKDKANNYATYYAESVKGRFTISRDDSKGSIYLQMNSLKEEDTAVYYCRGLYYGLFPSDYWGQGVMVTVSS
VL: B4 VL with R14S, F41Y, Q43L, S70G, A71G, V83L, V90I, H98Q
B6: 13H2 Fab (Fab, V domains shown)
VH: EEELVETGGSLVQPGKSLKLTCATSGFTFSNAWMHWVRQSPDKQLEWVAQIKAKSNNYATYYAESVKGRFTISRDDSKSSVYLQMNNLKEEDTAIYYCRYVHYGLAPMDAWGQGTSVTVSS
VL: B4 VL with R14S, F41Y, P45A, A71G, T77I, Y91F, H98Q, S105A, I111L
B7: humanized 4B4 Fab 4B4_5 (VL2C / VH6D) (Fab, V domains shown)
VH: QVQLVESGGGVVQPGRSLRLSCATSGFTFSNAWMHWVRQAPGKQLEWVAQIKARSNNYATYYADSVKGRFTISRDDSKSTIYLQMNSLRAEDTAVYYCRGTYYASKPFDYWGQGTLVTVSS
VL: DIVMTQTPLSLSVTPGQPASISCKSSQSLVHDNGNTYLSWSLQKPGQSPQVLIYKVSNRFSGVPDRFSGSGSGTDFTLKISRVEAEDVGVYYCGQGTQYPFTFGSGTKLEIK
B8: humanized 4B4 Fab 4B4_20 (VL2F / VH6C) (Fab, V domains shown)
VH: B7 VH with T24A, I81L
VL: B7 VL with G34A, S41Y, V51S, L109V
B9: humanized 4B4 Fab 4B4_10 (VL1_CM2 / VH6_BM2) (Fab, V domains shown)
VH: B7 VH with G10R, S21T, T24A, D64E, L116T
VL: B7 VL with I2V, T7S, P15L, A19V, K24R, K44R, Q50R
B10: humanized 4B4 Fab 4B4_11 (VL1_CM3 / VH6_BM2) (Fab, V domains shown)
VH: B7 VH with G10R, S21T, T24A, D64E, L116T
VL: B7 VL with I2V, T7S, P15L, A19V, K24R, G34A, K44R, Q50R
B11: humanized 4B4 Fab 4B4_17 (VL2A / VH2B) (Fab, V domains shown)
VH: EVQLVETGGGLVQPGGSLKLTCATSGFTFSNAWMHWVRQSPEKGLEWVAQIKARSNNYATYYADSVKGRFTISRDDSKSTIYLQMNSLRAEDTAIYYCRGTYYASKPFDYWGQGVMVTVSS
VL: B4 VL with R14S, L15P, Q18P, N32D, F41S, L51V, I63V, S68T, A71G, H98Q
B12: humanized 4B4 Fab 4B4_6 (VL1a / VH1A) (Fab, V domains shown)
VH: B11 VH with E1Q, Q13K, G16Q, D64E, R89T, A90P
VL: DVVMTQTPVSLSVSVGGRVSISCRSSQSLVHDNGNTYLSWSLQKPGKSPKVLIYKVSNRFSGVSSRFTGSGSGTDFTLKISSVQPDDLGVYYCGQGTQYPFTFGSGTKLEIK
B13: humanized 4B4 Fab 4B4_9 (VL2B / VH2A) (Fab, V domains shown)
VH: B11 VH with D64E
VL: B12 VL with V15P, R18P, G34A, K47Q, K50Q, S65D, S82R, Q84E
B14: humanized 4B4 Fab 4B4_7 (VL1b / VH1A) (Fab, V domains shown)
VH: B11 VH with E1Q, Q13K, G16Q, D64E, R89T, A90P
VL: B12 VL with G34A
B15: CODV-Fab BFX-9B8-G6 × CD3 (bispecific antibody, part only; not given: CD3 arm, linkers, constant domains, tag, V domains shown, not shown: another chain or arm of the molecule; a dimerising Fc or GST; small tags and cut ends)
VH: EVKLQESGPSLVQSSQTLSLTCTVSGFSLTSYHIHWVRQPPGKGLEWMGVMWSDGDTSYSSALKSRLSISRDTSQSQVFLKMNSLQTEDTATYYCARGDYSSYIYLWFAYWGQGTLVTVSS
VL: DIVMTQSPSSLAVSAGETVTINCKSSQSFLSSGDERNYVAWYQHKPGQSPKLLIYWASTRHSGVPDRFIGSGSGTDFTLTISSVQAEDLAIYYCQQYYDTPLTFGSGTKLEIK
B16: CODV-Fab BFX-9D7-C8 × CD3 (bispecific antibody, part only; not given: CD3 arm, linkers, constant domains, tag, V domains shown, not shown: another chain or arm of the molecule; a dimerising Fc or GST; small tags and cut ends)
VH: B15 VH with P40T, S60N, D99Y, I104L
VL: B15 VL with A15E, E35G, R36K, H44Y, H61Q, S83T
B17: CODV-Fab BFX-9F6-G3 × CD3 (bispecific antibody, part only; not given: CD3 arm, linkers, constant domains, tag, V domains shown, not shown: another chain or arm of the molecule; a dimerising Fc or GST; small tags and cut ends)
VH: QVQLQESGPTLVKPGDSVKMSCKASGYTFTDYIIHWVKQSHGKSLEWIGYINPYSDGTNYNEKFKSKATLTVDKSTSTAYMEFSRLTSEDSAIYFCALNYGSYYAMDAWGQGTSVTVSS
VL: DIQMTQSPASLSASLGETVTIECRPSEDIHSNVAWYQQKPGNSPQLLIYDASNLADGVPSRFSGSGSGTQYSLKINSLQSEDVASYFCHQYNIYPYTFGSGTKLELK
B18: CODV-Fab BFX-2F8-D6 × CD3 (bispecific antibody, V domains shown, not shown: a dimerising Fc or GST; small tags and cut ends)
VH: QVQLKESGPGLVQPSQTLSLTCTVSGFSLTSYGVSWVRQPPGKGLEWIATISSAGSTYYDLVLKSRLSITRDTSKSQVFLKVHSLQTEDTAIYLCARDAPVFNYGSYNAMDSWGQGTSVTVSS
VL: DIQMTQSPSFLSATVGDRVTINCKASQNINKYLNWYQQKLGEAPKRLIYNTNSLQTGIPSRFSGSGSGTDYTLTISSLQPEDVATYFCLQHKSGLTFGSGTKLEIK

Molecular target: Macaca fascicularis CD3ε/δ-Fc fusion heterodimer (Macaca fascicularis) (UniProt Q95LI8)
Sequence (chain, as listed by the source mutant, chain 1 of 2): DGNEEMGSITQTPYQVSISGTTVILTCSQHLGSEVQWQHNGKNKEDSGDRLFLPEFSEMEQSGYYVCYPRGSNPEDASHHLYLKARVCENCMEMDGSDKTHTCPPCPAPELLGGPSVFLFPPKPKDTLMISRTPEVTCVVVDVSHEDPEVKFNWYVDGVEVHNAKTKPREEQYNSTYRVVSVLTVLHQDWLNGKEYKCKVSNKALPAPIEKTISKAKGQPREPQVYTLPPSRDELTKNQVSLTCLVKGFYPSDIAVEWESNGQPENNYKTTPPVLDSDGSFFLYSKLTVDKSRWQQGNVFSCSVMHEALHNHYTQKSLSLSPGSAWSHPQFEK
Sequence (Q95LI8 22-105, stated change not applied, chain 2 of 2): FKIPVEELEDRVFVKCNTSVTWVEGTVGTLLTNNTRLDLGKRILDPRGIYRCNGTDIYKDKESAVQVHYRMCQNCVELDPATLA
Experiment: SPR, steady state

| Kd | Binder |
| --- | --- |
| 4.8 nM | B1 |

Molecular target: human CD123 on cells (human) (UniProt P26951)
Sequence (P26951 19-378): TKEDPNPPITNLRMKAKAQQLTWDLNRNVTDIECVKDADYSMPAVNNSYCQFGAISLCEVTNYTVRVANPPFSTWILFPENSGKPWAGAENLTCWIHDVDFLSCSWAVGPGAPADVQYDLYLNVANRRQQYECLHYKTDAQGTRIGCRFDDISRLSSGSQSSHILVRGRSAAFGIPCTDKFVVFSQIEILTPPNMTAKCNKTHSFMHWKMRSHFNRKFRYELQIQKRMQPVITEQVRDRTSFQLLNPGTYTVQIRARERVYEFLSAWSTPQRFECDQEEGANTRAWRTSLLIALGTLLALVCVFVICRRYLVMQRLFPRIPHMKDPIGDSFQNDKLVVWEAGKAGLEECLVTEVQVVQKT
Experiment: cell-based or functional assay

| Binder | EC50 cytotoxic assay (THP-1), geomean | Activity EC50 (cytotoxic assay, THP-1 targets + primary human T cells) |
| --- | --- | --- |
| B2 | 12.2 ng/mL | – |
| B3 | – | 16 ng/mL |

Molecular target: Macaca fascicularis CD3ε/δ-Fc fusion heterodimer (Macaca fascicularis) (UniProt Q95LI8)
Experiment: SPR, cyno against human CD3ε/δ

| ratio KD(cy)/KD(hu) | Binder |
| --- | --- |
| 1 | B4 |
| 1 | B5 |
| 1 | B6 |
| 4 | B1 |

Molecular target: Macaca fascicularis CD3ε/δ-Fc fusion heterodimer (Macaca fascicularis) (UniProt Q95LI8)
Experiment: SPR Biacore, Fab; unit inferred

| Kd | Binder |
| --- | --- |
| 16.6 nM | B7 |
| 43.4 nM | B8 |
| 8.94 nM | B9 |
| 20.4 nM | B10 |
| 9.07 nM | B11 |
| 1.19 nM | B12 |
| 12.1 nM | B13 |
| 7.28 nM | B14 |

Molecular target: Macaca fascicularis CD3ε/δ-Fc fusion heterodimer (Macaca fascicularis) (UniProt Q95LI8)
Experiment: SPR, CD3ε/δ-Fc captured, Fab analyte

| Kd | koff | kon | Binder |
| --- | --- | --- | --- |
| 42 nM | 0.0042 s⁻¹ | 100000 M⁻¹ s⁻¹ | B4 |
| 4.3 nM | 0.00015 s⁻¹ | 34000 M⁻¹ s⁻¹ | B5 |
| 32 nM | 0.0059 s⁻¹ | 180000 M⁻¹ s⁻¹ | B6 |

Molecular target: human CD123 on cells (human) (UniProt P26951)
Experiment: flow cytometry, TF-1 cells, 3 µg antibody

| % FITC positive cells | Binder |
| --- | --- |
| 31.6% | B2 |
| 31.1% | B15 |
| 50.2% | B16 |
| 60.7% | B17 |
| 9.3% | B18 |

Molecular target: human CD123 on cells (human) (UniProt P26951)
Experiment: flow cytometry, THP-1 cells, 3 µg antibody

| % FITC positive cells | Binder |
| --- | --- |
| 99% | B2 |
| 48.8% | B15 |
| 88.7% | B16 |
| 99.7% | B17 |
| 24% | B18 |
